Measured values reported in patent US10253078 (ZEALAND PHARMA A S, dated 2019).
Starred links: 1 amine or outer side, 2 acyl side, 3 side chain; linkers in the order of their positions; H or OH if unused. Non-standard residues stand in square brackets, D forms with d. Groups on a side chain read outwards from the residue. *: point of attachment. C20 diacid = O=C(O)CCCCCCCCCCCCCCCCCCC(=O)*; γGlu = O=C(O)[C@H](CCC(=O)[*:2])N[*:1]; Palmitoyl = CCCCCCCCCCCCCCCC(=O)*; Aib = CC(C)(N)C(=O)O

T1: human GIP receptor (human, UniProt P48546 22-466)
T1 sequence (looked up): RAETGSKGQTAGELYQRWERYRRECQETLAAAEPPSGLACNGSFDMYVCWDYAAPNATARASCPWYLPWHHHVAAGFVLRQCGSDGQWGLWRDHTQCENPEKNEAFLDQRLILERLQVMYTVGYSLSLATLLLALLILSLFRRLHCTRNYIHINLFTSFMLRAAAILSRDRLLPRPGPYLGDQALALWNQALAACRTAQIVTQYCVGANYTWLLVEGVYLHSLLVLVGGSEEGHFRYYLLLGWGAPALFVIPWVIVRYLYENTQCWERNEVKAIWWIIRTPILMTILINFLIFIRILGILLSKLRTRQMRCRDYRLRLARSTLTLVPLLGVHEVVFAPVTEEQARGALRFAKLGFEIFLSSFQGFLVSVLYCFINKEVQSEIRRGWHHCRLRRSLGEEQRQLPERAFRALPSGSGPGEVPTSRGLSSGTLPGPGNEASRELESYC

B1: Compound 19 (peptide)
peptide: YAEGTFISDYSIELDKKAQRAFIEWLLAQGPSSGAPPPS
modifications: Aib at 2; Lys 17 side chain acylated: K((19-Carboxy-nonadecanoyl)-[(Piperazine-1-yl)-acetyl]-Peg3-Peg3); C-terminal amide (-NH2)
B2: Compound 7 (peptide)
peptide: H-Y[Aib]EGTFISDYSIELDKIHQQDFVNWLLAQKGK([γGlu-Palmitoyl])-NH2
SMILES: CCCCCCCCCCCCCCCC(=O)N[C@@H](CCC(=O)NCCCC[C@H](NC(=O)CNC(=O)[C@H](CCCCN)NC(=O)[C@H](CCC(N)=O)NC(=O)[C@H](C)NC(=O)[C@H](CC(C)C)NC(=O)[C@H](CC(C)C)NC(=O)[C@H](Cc1c[nH]c2ccccc12)NC(=O)[C@H](CC(N)=O)NC(=O)[C@@H](NC(=O)[C@H](Cc1ccccc1)NC(=O)[C@H](CC(=O)O)NC(=O)[C@H](CCC(N)=O)NC(=O)[C@H](CCC(N)=O)NC(=O)[C@H](Cc1c[nH]cn1)NC(=O)[C@@H](NC(=O)[C@H](CCCCN)NC(=O)[C@H](CC(=O)O)NC(=O)[C@H](CC(C)C)NC(=O)[C@H](CCC(=O)O)NC(=O)[C@@H](NC(=O)[C@H](CO)NC(=O)[C@H](Cc1ccc(O)cc1)NC(=O)[C@H](CC(=O)O)NC(=O)[C@H](CO)NC(=O)[C@@H](NC(=O)[C@H](Cc1ccccc1)NC(=O)[C@@H](NC(=O)CNC(=O)[C@H](CCC(=O)O)NC(=O)C(C)(C)NC(=O)[C@@H](N)Cc1ccc(O)cc1)[C@@H](C)O)[C@@H](C)CC)[C@@H](C)CC)[C@@H](C)CC)C(C)C)C(N)=O)C(=O)O
B3: Compound 3 (peptide)
peptide: H-Y[Aib]EGTFISDYSIELEKK([γGlu-Palmitoyl])HQQDFVNWLLAQGPSSGAPPPS-NH2
SMILES: CCCCCCCCCCCCCCCC(=O)N[C@@H](CCC(=O)NCCCC[C@H](NC(=O)[C@H](CCCCN)NC(=O)[C@H](CCC(=O)O)NC(=O)[C@H](CC(C)C)NC(=O)[C@H](CCC(=O)O)NC(=O)[C@@H](NC(=O)[C@H](CO)NC(=O)[C@H](Cc1ccc(O)cc1)NC(=O)[C@H](CC(=O)O)NC(=O)[C@H](CO)NC(=O)[C@@H](NC(=O)[C@H](Cc1ccccc1)NC(=O)[C@@H](NC(=O)CNC(=O)[C@H](CCC(=O)O)NC(=O)C(C)(C)NC(=O)[C@@H](N)Cc1ccc(O)cc1)[C@@H](C)O)[C@@H](C)CC)[C@@H](C)CC)C(=O)N[C@@H](Cc1c[nH]cn1)C(=O)N[C@@H](CCC(N)=O)C(=O)N[C@@H](CCC(N)=O)C(=O)N[C@@H](CC(=O)O)C(=O)N[C@@H](Cc1ccccc1)C(=O)N[C@H](C(=O)N[C@@H](CC(N)=O)C(=O)N[C@@H](Cc1c[nH]c2ccccc12)C(=O)N[C@@H](CC(C)C)C(=O)N[C@@H](CC(C)C)C(=O)N[C@@H](C)C(=O)N[C@@H](CCC(N)=O)C(=O)NCC(=O)N1CCC[C@H]1C(=O)N[C@@H](CO)C(=O)N[C@@H](CO)C(=O)NCC(=O)N[C@@H](C)C(=O)N1CCC[C@H]1C(=O)N1CCC[C@H]1C(=O)N1CCC[C@H]1C(=O)N[C@@H](CO)C(N)=O)C(C)C)C(=O)O
B4: Compound 1 (peptide)
peptide: H-Y[Aib]EGTFISDYSIELDKK([γGlu-Palmitoyl])HQQDFVNWLLAQGPSSGAPPPS-NH2
SMILES: CCCCCCCCCCCCCCCC(=O)N[C@@H](CCC(=O)NCCCC[C@H](NC(=O)[C@H](CCCCN)NC(=O)[C@H](CC(=O)O)NC(=O)[C@H](CC(C)C)NC(=O)[C@H](CCC(=O)O)NC(=O)[C@@H](NC(=O)[C@H](CO)NC(=O)[C@H](Cc1ccc(O)cc1)NC(=O)[C@H](CC(=O)O)NC(=O)[C@H](CO)NC(=O)[C@@H](NC(=O)[C@H](Cc1ccccc1)NC(=O)[C@@H](NC(=O)CNC(=O)[C@H](CCC(=O)O)NC(=O)C(C)(C)NC(=O)[C@@H](N)Cc1ccc(O)cc1)[C@@H](C)O)[C@@H](C)CC)[C@@H](C)CC)C(=O)N[C@@H](Cc1c[nH]cn1)C(=O)N[C@@H](CCC(N)=O)C(=O)N[C@@H](CCC(N)=O)C(=O)N[C@@H](CC(=O)O)C(=O)N[C@@H](Cc1ccccc1)C(=O)N[C@H](C(=O)N[C@@H](CC(N)=O)C(=O)N[C@@H](Cc1c[nH]c2ccccc12)C(=O)N[C@@H](CC(C)C)C(=O)N[C@@H](CC(C)C)C(=O)N[C@@H](C)C(=O)N[C@@H](CCC(N)=O)C(=O)NCC(=O)N1CCC[C@H]1C(=O)N[C@@H](CO)C(=O)N[C@@H](CO)C(=O)NCC(=O)N[C@@H](C)C(=O)N1CCC[C@H]1C(=O)N1CCC[C@H]1C(=O)N1CCC[C@H]1C(=O)N[C@@H](CO)C(N)=O)C(C)C)C(=O)O
B5: Compound 9 (peptide)
peptide: H-Y[Aib]EGTFISDYSIELDKK([Peg3-Peg3-γGlu-C20 diacid])HQQDFVNWLLAQGPSSGAPPPS-NH2
B6: Compound 4 (peptide)
peptide: H-Y[Aib]EGTFISDYSIELDKIHQQDFVNWLLAQGPSSGAPPPSK([Peg3-Peg3-γGlu-C20 diacid])-NH2
B7: Compound 5 (peptide)
peptide: H-Y[Aib]EGTFISDYSIELDKIHQQDFVNWLLAQGPSSGAPPPSK([γGlu-Palmitoyl])-NH2
SMILES: CCCCCCCCCCCCCCCC(=O)N[C@@H](CCC(=O)NCCCC[C@H](NC(=O)[C@H](CO)NC(=O)[C@@H]1CCCN1C(=O)[C@@H]1CCCN1C(=O)[C@@H]1CCCN1C(=O)[C@H](C)NC(=O)CNC(=O)[C@H](CO)NC(=O)[C@H](CO)NC(=O)[C@@H]1CCCN1C(=O)CNC(=O)[C@H](CCC(N)=O)NC(=O)[C@H](C)NC(=O)[C@H](CC(C)C)NC(=O)[C@H](CC(C)C)NC(=O)[C@H](Cc1c[nH]c2ccccc12)NC(=O)[C@H](CC(N)=O)NC(=O)[C@@H](NC(=O)[C@H](Cc1ccccc1)NC(=O)[C@H](CC(=O)O)NC(=O)[C@H](CCC(N)=O)NC(=O)[C@H](CCC(N)=O)NC(=O)[C@H](Cc1c[nH]cn1)NC(=O)[C@@H](NC(=O)[C@H](CCCCN)NC(=O)[C@H](CC(=O)O)NC(=O)[C@H](CC(C)C)NC(=O)[C@H](CCC(=O)O)NC(=O)[C@@H](NC(=O)[C@H](CO)NC(=O)[C@H](Cc1ccc(O)cc1)NC(=O)[C@H](CC(=O)O)NC(=O)[C@H](CO)NC(=O)[C@@H](NC(=O)[C@H](Cc1ccccc1)NC(=O)[C@@H](NC(=O)CNC(=O)[C@H](CCC(=O)O)NC(=O)C(C)(C)NC(=O)[C@@H](N)Cc1ccc(O)cc1)[C@@H](C)O)[C@@H](C)CC)[C@@H](C)CC)[C@@H](C)CC)C(C)C)C(N)=O)C(=O)O
B8: Compound 2 (peptide)
peptide: H-Y[Aib]EGTFISDYSIELDK([γGlu-Palmitoyl])IHQQDFVNWLLAQGPSSGAPPPS-NH2
SMILES: CCCCCCCCCCCCCCCC(=O)N[C@@H](CCC(=O)NCCCC[C@H](NC(=O)[C@H](CC(=O)O)NC(=O)[C@H](CC(C)C)NC(=O)[C@H](CCC(=O)O)NC(=O)[C@@H](NC(=O)[C@H](CO)NC(=O)[C@H](Cc1ccc(O)cc1)NC(=O)[C@H](CC(=O)O)NC(=O)[C@H](CO)NC(=O)[C@@H](NC(=O)[C@H](Cc1ccccc1)NC(=O)[C@@H](NC(=O)CNC(=O)[C@H](CCC(=O)O)NC(=O)C(C)(C)NC(=O)[C@@H](N)Cc1ccc(O)cc1)[C@@H](C)O)[C@@H](C)CC)[C@@H](C)CC)C(=O)N[C@H](C(=O)N[C@@H](Cc1c[nH]cn1)C(=O)N[C@@H](CCC(N)=O)C(=O)N[C@@H](CCC(N)=O)C(=O)N[C@@H](CC(=O)O)C(=O)N[C@@H](Cc1ccccc1)C(=O)N[C@H](C(=O)N[C@@H](CC(N)=O)C(=O)N[C@@H](Cc1c[nH]c2ccccc12)C(=O)N[C@@H](CC(C)C)C(=O)N[C@@H](CC(C)C)C(=O)N[C@@H](C)C(=O)N[C@@H](CCC(N)=O)C(=O)NCC(=O)N1CCC[C@H]1C(=O)N[C@@H](CO)C(=O)N[C@@H](CO)C(=O)NCC(=O)N[C@@H](C)C(=O)N1CCC[C@H]1C(=O)N1CCC[C@H]1C(=O)N1CCC[C@H]1C(=O)N[C@@H](CO)C(N)=O)C(C)C)[C@@H](C)CC)C(=O)O
B9: Compound 6 (peptide)
peptide: H-Y[Aib]EGTFISDYSIELDKIHQQDFVNWLLAQK([γGlu-Palmitoyl])-NH2
SMILES: CCCCCCCCCCCCCCCC(=O)N[C@@H](CCC(=O)NCCCC[C@H](NC(=O)[C@H](CCC(N)=O)NC(=O)[C@H](C)NC(=O)[C@H](CC(C)C)NC(=O)[C@H](CC(C)C)NC(=O)[C@H](Cc1c[nH]c2ccccc12)NC(=O)[C@H](CC(N)=O)NC(=O)[C@@H](NC(=O)[C@H](Cc1ccccc1)NC(=O)[C@H](CC(=O)O)NC(=O)[C@H](CCC(N)=O)NC(=O)[C@H](CCC(N)=O)NC(=O)[C@H](Cc1c[nH]cn1)NC(=O)[C@@H](NC(=O)[C@H](CCCCN)NC(=O)[C@H](CC(=O)O)NC(=O)[C@H](CC(C)C)NC(=O)[C@H](CCC(=O)O)NC(=O)[C@@H](NC(=O)[C@H](CO)NC(=O)[C@H](Cc1ccc(O)cc1)NC(=O)[C@H](CC(=O)O)NC(=O)[C@H](CO)NC(=O)[C@@H](NC(=O)[C@H](Cc1ccccc1)NC(=O)[C@@H](NC(=O)CNC(=O)[C@H](CCC(=O)O)NC(=O)C(C)(C)NC(=O)[C@@H](N)Cc1ccc(O)cc1)[C@@H](C)O)[C@@H](C)CC)[C@@H](C)CC)[C@@H](C)CC)C(C)C)C(N)=O)C(=O)O

What was measured:
Experiment in all cases: cell-based or functional assay
human GIP receptor [1] = biological target: T1, human GIP receptor
human GIP receptor [2] = biological target: T1, human GIP receptor; remark: listed apart in the source
human GLP-1 receptor = human GLP-1 receptor (human, UniProt P43220 24-463)

Row | Binder | EC50, hGIP-R level of cAMP (HEK293 cells expressing human GIP R) (human GIP receptor [1]) [pM] | EC50 hGIP R (cAMP, HEK293 cells expressing the GIP R) (human GIP receptor [2]) [pM] | EC50 hGLP1 R (cAMP, HEK293 cells expressing the GLP-1R) (human GLP-1 receptor) [pM]
1 | B1 | 6 | 5 | > 3000
2 | B2 | 18 | 32 | 
3 | B3 | 14 | 14 | 
4 | B4 | 8 | 3 | 
5 | B5 | 8 | 9 | > 3000
6 | B6 | 13 | 14 | 
7 | B7 | 14 | 14 | 
8 | B8 | 13 | 8 | 
9 | B9 | 32 | 14 | 
